Measured values published in PMC7884425, “HPF1 remodels the active site of PARP1 to enable the serine ADP-ribosylation of histones” (Nature Communications, 2021).

T1: human HPF1 K216E (human, UniProt Q9NWY4 1-346, K216E)
T1 construct: HPF1, human; not shown: His6, N-terminal, cleaved
T1 sequence (looked up): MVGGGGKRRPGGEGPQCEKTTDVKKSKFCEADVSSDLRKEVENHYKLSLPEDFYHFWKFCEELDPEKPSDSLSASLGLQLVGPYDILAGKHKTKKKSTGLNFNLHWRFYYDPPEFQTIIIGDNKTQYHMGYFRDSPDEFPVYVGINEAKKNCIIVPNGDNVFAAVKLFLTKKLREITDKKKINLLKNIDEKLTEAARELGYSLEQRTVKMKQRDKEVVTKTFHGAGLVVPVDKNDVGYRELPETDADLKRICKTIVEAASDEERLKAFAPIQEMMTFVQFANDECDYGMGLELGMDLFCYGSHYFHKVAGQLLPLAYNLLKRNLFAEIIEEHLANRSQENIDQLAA

T2: human HPF1 E138K (human, UniProt Q9NWY4 1-346, E138K)
T2 construct: HPF1, human; not shown: His6, N-terminal, cleaved
T2 sequence (looked up): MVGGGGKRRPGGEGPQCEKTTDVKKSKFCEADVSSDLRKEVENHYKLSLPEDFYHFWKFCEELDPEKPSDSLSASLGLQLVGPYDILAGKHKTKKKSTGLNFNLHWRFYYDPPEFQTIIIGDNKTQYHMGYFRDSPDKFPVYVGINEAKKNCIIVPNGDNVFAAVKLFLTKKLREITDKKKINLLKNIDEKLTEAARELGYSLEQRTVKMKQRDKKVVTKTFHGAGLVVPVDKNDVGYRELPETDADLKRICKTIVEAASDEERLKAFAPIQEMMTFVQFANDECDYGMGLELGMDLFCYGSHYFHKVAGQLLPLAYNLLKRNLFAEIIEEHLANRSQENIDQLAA

T3: human HPF1 C285H (human, UniProt Q9NWY4 1-346, C285H)
T3 construct: HPF1, human; not shown: His6, N-terminal, cleaved
T3 sequence (looked up): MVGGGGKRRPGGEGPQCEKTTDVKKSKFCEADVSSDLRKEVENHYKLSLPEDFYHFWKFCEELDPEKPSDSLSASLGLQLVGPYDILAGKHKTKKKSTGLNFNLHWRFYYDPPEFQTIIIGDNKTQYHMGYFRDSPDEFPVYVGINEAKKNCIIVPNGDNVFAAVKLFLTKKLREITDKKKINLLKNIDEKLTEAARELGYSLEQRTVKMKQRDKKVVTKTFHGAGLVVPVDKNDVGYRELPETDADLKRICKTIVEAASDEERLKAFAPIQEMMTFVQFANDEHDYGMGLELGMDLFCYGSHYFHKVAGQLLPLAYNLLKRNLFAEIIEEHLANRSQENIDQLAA

T4: human HPF1 F139S (human, UniProt Q9NWY4 1-346, F139S)
T4 construct: HPF1, human; also called HPF F139S; not shown: His6, N-terminal, cleaved
T4 sequence (looked up): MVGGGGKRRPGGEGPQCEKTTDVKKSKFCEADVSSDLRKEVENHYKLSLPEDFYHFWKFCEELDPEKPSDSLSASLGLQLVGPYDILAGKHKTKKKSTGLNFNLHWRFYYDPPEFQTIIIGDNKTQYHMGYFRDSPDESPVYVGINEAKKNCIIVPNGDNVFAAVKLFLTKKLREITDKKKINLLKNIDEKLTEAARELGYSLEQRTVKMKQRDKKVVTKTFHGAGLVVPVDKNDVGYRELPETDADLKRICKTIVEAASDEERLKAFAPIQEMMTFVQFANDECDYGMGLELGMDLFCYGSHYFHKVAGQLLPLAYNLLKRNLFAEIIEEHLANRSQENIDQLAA

T5: human HPF1 K307S (human, UniProt Q9NWY4 1-346, K307S)
T5 construct: HPF1, human; not shown: His6, N-terminal, cleaved
T5 sequence (looked up): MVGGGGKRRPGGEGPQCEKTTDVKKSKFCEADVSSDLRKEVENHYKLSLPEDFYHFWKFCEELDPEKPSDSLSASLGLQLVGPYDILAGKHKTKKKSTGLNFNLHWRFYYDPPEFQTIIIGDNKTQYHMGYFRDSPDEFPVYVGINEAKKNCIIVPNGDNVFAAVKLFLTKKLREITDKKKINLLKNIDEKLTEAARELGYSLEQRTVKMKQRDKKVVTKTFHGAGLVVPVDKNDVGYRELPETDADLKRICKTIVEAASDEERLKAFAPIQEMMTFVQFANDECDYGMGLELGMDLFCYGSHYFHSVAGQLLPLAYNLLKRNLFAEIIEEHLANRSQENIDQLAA

T6: human HPF1 E284A (human, UniProt Q9NWY4 1-346, E284A)
T6 construct: HPF1, human; not shown: His6, N-terminal, cleaved
T6 sequence (looked up): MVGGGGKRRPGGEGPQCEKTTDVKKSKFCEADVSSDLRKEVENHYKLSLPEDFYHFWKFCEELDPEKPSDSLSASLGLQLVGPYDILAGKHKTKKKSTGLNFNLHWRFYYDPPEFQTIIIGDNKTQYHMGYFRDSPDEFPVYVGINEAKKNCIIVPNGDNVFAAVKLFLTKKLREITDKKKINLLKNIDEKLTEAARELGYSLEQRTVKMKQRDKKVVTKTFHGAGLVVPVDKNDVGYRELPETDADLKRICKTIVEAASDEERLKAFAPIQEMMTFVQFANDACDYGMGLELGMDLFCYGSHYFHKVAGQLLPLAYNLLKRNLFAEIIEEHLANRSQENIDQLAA

T7: human HPF1 R239A (human, UniProt Q9NWY4 1-346, R239A)
T7 construct: HPF1, human; not shown: His6, N-terminal, cleaved
T7 sequence (looked up): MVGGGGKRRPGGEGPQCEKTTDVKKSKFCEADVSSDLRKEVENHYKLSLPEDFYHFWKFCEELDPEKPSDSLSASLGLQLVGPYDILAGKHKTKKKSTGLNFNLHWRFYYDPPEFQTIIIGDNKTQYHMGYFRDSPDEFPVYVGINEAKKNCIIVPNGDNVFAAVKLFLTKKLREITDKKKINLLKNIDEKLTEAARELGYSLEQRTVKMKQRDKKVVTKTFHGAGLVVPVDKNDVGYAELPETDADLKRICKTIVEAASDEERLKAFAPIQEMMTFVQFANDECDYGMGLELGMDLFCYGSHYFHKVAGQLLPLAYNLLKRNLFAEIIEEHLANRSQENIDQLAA

T8: human HPF1 F280A (human, UniProt Q9NWY4 1-346, F280A)
T8 construct: HPF1, human; not shown: His6, N-terminal, cleaved
T8 sequence (looked up): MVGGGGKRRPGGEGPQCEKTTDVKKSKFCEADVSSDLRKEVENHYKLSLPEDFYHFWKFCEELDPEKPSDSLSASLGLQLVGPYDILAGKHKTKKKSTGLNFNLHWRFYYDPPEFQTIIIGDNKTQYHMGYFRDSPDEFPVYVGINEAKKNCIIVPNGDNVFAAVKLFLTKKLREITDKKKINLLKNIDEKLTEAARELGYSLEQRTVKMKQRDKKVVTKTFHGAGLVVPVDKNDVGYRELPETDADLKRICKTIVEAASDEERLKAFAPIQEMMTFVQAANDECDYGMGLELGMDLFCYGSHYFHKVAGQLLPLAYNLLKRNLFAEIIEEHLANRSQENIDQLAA

B1: human HPF1 (histone PARylation factor 1), wild-type (natural protein, UniProt Q9NWY4 1-346, looked up)
chain: MVGGGGKRRPGGEGPQCEKTTDVKKSKFCEADVSSDLRKEVENHYKLSLPEDFYHFWKFCEELDPEKPSDSLSASLGLQLVGPYDILAGKHKTKKKSTGLNFNLHWRFYYDPPEFQTIIIGDNKTQYHMGYFRDSPDEFPVYVGINEAKKNCIIVPNGDNVFAAVKLFLTKKLREITDKKKINLLKNIDEKLTEAARELGYSLEQRTVKMKQRDKKVVTKTFHGAGLVVPVDKNDVGYRELPETDADLKRICKTIVEAASDEERLKAFAPIQEMMTFVQFANDECDYGMGLELGMDLFCYGSHYFHKVAGQLLPLAYNLLKRNLFAEIIEEHLANRSQENIDQLAA
notes: HPF1 (C4orf27), human; TEV site ENLYFQG between the His tag and the protein; the tag was removed with TEV protease; also called C4orf27; not shown: His6, N-terminal, cleaved
B2: human PARP1-CAT ΔHD (661-678-GSGSGSGG-787-1014) (domain or fragment)
chain: TKSKLPKPVQDLIKMIFDGSGSGSGGKDPIDVNYEKLKTDIKVVDRDSEEAEIIRKYVKNTHATTHNAYDLEVIDIFKIEREGECQRYKPFKQLHNRRLLWHGSRTTNFAGILSQGLRIAPPEAPVTGYMFGKGIYFADMVSKSANYCHTSQGDPIGLILLGEVALGNMYELKHASHISKLPKGKHSVKGLGKTTPDPSANISLDGVDVPLGTGISSGVNDTSLLYNEYIVYDIAQVNLKYLLKLKFNFKTSLW
notes: PARP1, human, catalytic domain, residues 661-678; linker that replaces residues 679-786 (most of the HD subdomain); PARP1, human, catalytic domain (ART), residues 787-1014; also called CAT△HD; not shown: His6, N-terminal, cleaved

Columns and labels:
Experiment in all cases: ITC; HPF1 wild-type or mutant 0.3 or 0.4 mM in the syringe, PARP1 CAT-ΔHD (or full-length CAT) 0.02 mM in the cell; 25 °C; 20 mM Tris-pH 8.0, 150 mM NaCl, 1 mM TCEP, 1 mM MgCl2
Details in all cases: both partners purified
[1] = molecular target: B2
[2] = molecular target: B1
human HPF1 K216E = molecular target: T1, human HPF1 K216E
human HPF1 E138K = molecular target: T2, human HPF1 E138K
human HPF1 C285H = molecular target: T3, human HPF1 C285H
human HPF1 F139S = molecular target: T4, human HPF1 F139S
[3] = molecular target: B1; remark: listed apart in the source
human HPF1 K307S = molecular target: T5, human HPF1 K307S
human HPF1 E284A = molecular target: T6, human HPF1 E284A
human HPF1 R239A = molecular target: T7, human HPF1 R239A
human HPF1 F280A = molecular target: T8, human HPF1 F280A

stoichiometry N [1]	Ka [2]	Kd [2]	Kd (human HPF1 K216E)	Kd (human HPF1 E138K)	Kd (human HPF1 C285H)	Kd (human HPF1 F139S)	Kd [3]	Kd (human HPF1 K307S)	Kd (human HPF1 E284A)	Kd (human HPF1 R239A)	Kd (human HPF1 F280A)	Binder
1												B1
	758000 M⁻¹	~1300 nM	1400 nM	1700 nM	28700 nM	2400 nM	1500 nM	9300 nM	300 nM	2400 nM	6000 nM	B2
